Measurements taken from patent US20240238380A1 (YUHAN, published 2024).

Biological target: GFRAL/RET overexpressed on HEK293 cells (GFRAL/RET/SRE-luc-overexpressing HEK293 cell line) (UniProt Q6UXV0 19-394; P07949 29-1114, limits assumed)
Assay: cell-based or functional assay

GFRAL/RET overexpressed on HEK293 cells (GFRAL/RET/SRE-luc-overexpressing HEK293 cell line), sequence (Q6UXV0 19-394 limits assumed, chain 1 of 2): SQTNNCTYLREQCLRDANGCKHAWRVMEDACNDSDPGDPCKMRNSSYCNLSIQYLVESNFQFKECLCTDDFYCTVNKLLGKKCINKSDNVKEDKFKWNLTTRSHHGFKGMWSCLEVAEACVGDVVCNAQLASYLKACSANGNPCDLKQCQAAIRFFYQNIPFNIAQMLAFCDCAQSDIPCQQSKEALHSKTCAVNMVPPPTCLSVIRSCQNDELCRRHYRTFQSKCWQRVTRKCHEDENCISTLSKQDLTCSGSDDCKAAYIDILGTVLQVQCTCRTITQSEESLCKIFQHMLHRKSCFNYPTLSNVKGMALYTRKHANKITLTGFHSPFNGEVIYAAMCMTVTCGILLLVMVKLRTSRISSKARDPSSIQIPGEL
GFRAL/RET overexpressed on HEK293 cells (GFRAL/RET/SRE-luc-overexpressing HEK293 cell line), sequence (P07949 29-1114 limits assumed, chain 2 of 2): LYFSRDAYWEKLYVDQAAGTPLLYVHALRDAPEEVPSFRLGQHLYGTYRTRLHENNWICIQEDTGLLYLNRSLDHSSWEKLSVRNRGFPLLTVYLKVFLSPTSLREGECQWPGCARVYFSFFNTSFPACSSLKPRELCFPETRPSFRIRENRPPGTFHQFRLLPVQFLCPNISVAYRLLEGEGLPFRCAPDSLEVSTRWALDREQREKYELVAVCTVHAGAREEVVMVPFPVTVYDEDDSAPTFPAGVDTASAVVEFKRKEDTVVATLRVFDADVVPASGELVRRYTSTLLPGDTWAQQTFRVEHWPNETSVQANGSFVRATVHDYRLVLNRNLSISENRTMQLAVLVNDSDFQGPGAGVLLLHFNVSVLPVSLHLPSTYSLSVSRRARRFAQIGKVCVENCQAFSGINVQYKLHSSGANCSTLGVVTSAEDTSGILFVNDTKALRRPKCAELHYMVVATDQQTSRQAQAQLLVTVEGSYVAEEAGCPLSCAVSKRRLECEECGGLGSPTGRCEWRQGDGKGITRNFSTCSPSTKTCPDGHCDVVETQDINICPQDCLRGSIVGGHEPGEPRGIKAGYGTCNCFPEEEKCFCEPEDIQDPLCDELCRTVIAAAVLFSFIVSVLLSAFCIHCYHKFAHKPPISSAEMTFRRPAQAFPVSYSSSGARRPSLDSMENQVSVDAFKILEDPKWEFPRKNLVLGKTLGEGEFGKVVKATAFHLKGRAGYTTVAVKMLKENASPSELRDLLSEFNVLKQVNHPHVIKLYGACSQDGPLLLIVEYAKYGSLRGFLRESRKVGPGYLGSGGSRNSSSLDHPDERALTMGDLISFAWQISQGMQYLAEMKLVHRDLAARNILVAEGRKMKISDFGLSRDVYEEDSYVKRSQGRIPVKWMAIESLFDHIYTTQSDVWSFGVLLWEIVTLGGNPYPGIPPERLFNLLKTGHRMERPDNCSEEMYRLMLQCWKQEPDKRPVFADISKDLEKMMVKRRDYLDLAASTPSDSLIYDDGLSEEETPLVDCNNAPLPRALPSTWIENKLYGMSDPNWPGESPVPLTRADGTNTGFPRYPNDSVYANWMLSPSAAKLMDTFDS

Binder | EC50 (nM), SRE-luciferase reporter (RLU) | Emax (%), SRE-luciferase reporter (RLU), relative to FM9-6+Fc_hole
FM9-2 + Fc_hole long-acting GDF15 fusion protein (dimer) (Fc fusion) chain 1: APEAAGGPSVFLFPPKPKDTLMISRTPEVTCVVVDVSHEDPEVKFNWYVDGVEVHNAKTKPREEQYASTYRVVSVLTVLHQDWLNGKEYKCKVSNKALPAPIEKTISKAKGQPREPQVYTLPPSREEMTKNQVSLWCLVKGFYPSDIAVEWESNGQPENNYKTTPPVLDSDGSFFLYSKLTVDKSRWQQGNVFSCSVMHEALHNHYTQKSLSLSPGKGSGGGGSGGGGSGGGGSGGGGSGGGGSNGDHCPLGPGRCCRLHTVRASLEDLGWADWVLSPREVQVTMCIGACPSQFRAANMHAQIKTRLHRLKPDTVPAPCCVPASYNPMVLIQKTDTGVSLQTYDDLLAKDCHCI chain 2: APEAAGGPSVFLFPPKPKDTLMISRTPEVTCVVVDVSHEDPEVKFNWYVDGVEVHNAKTKPREEQYASTYRVVSVLTVLHQDWLNGKEYKCKVSNKALPAPIEKTISKAKGQPREPQVYTLPPSREEMTKNQVSLSCAVKGFYPSDIAVEWESNGQPENNYKTTPPVLDSDGSFFLVSKLTVDKSRWQQGNVFSCSVMHEALHNHYTQKSLSLSPGK | 9.5 nM | 111%
FM9-3 + Fc_hole long-acting GDF15 fusion protein (dimer) (Fc fusion) chain 1: APEAAGGPSVFLFPPKPKDTLMISRTPEVTCVVVDVSHEDPEVKFNWYVDGVEVHNAKTKPREEQYASTYRVVSVLTVLHQDWLNGKEYKCKVSNKALPAPIEKTISKAKGQPREPQVYTLPPSREEMTKNQVSLWCLVKGFYPSDIAVEWESNGQPENNYKTTPPVLDSDGSFFLYSKLTVDKSRWQQGNVFSCSVMHEALHNHYTQKSLSLSPGKGSGGGGSGGGGSGGGGSGGGGSGGGGSGGGGSGGGGSNGDHCPLGPGRCCRLHTVRASLEDLGWADWVLSPREVQVTMCIGACPSQFRAANMHAQIKTRLHRLKPDTVPAPCCVPASYNPMVLIQKTDTGVSLQTYDDLLAKDCHCI chain 2: APEAAGGPSVFLFPPKPKDTLMISRTPEVTCVVVDVSHEDPEVKFNWYVDGVEVHNAKTKPREEQYASTYRVVSVLTVLHQDWLNGKEYKCKVSNKALPAPIEKTISKAKGQPREPQVYTLPPSREEMTKNQVSLSCAVKGFYPSDIAVEWESNGQPENNYKTTPPVLDSDGSFFLVSKLTVDKSRWQQGNVFSCSVMHEALHNHYTQKSLSLSPGK | 9.3 nM | 95.6%
FM9-4 + Fc_hole long-acting GDF15 fusion protein (dimer) (Fc fusion) chain 1: APEAAGGPSVFLFPPKPKDTLMISRTPEVTCVVVDVSHEDPEVKFNWYVDGVEVHNAKTKPREEQYASTYRVVSVLTVLHQDWLNGKEYKCKVSNKALPAPIEKTISKAKGQPREPQVYTLPPSREEMTKNQVSLWCLVKGFYPSDIAVEWESNGQPENNYKTTPPVLDSDGSFFLYSKLTVDKSRWQQGNVFSCSVMHEALHNHYTQKSLSLSPGKGSEEEAEEEAEEEAEEEAEEEAEEEANGDHCPLGPGRCCRLHTVRASLEDLGWADWVLSPREVQVTMCIGACPSQFRAANMHAQIKTRLHRLKPDTVPAPCCVPASYNPMVLIQKTDTGVSLQTYDDLLAKDCHCI chain 2: APEAAGGPSVFLFPPKPKDTLMISRTPEVTCVVVDVSHEDPEVKFNWYVDGVEVHNAKTKPREEQYASTYRVVSVLTVLHQDWLNGKEYKCKVSNKALPAPIEKTISKAKGQPREPQVYTLPPSREEMTKNQVSLSCAVKGFYPSDIAVEWESNGQPENNYKTTPPVLDSDGSFFLVSKLTVDKSRWQQGNVFSCSVMHEALHNHYTQKSLSLSPGK | 23.6 nM | 128%
